Usually Kd stands for a measure of binding affinity in units of concentration. A low value points to tighter binding.

Kd data for 20 molecules are collected here from PMC11488661 (Science immunology, 2024).

The labels stand for the following.
B1: g28v2-D38-10_CLK19 (antibody, V domains shown)
VH: QVQLVQSGAEVKKPGASVKVSCKASGYTFTGYYIHWVRQAPGQGLEWMGWINPNSGGTNYPQKFQGRVTMTRDTSISTAYMELSRLRSDDTAVYYCALWFGEKWTFDIWGQGTMVTVSS
VL: DIQMTQSPSSLSASVGDRVTITCQASQDIGNYLNWYHQRPGKAPKLLIYDASNLETGVPSRFSGSGSGPDSTFTISTLQPEDIGTYYCQQYDTFGPGTKVDIK
B2: g28v2-D46-14_CLK19 (antibody, V domains shown)
VH: B1 VH with Q1R, S55R, Y80S, W104K
VL: DIQLTQSPSSLSASVGGRVTITCQASQDIHNYLNWYQQKPGKAPKILIHDVSNLETGVPSRFSGSRSGTDFTFTISSLLPEDIGTYYCQQYEFFGPGTKVDIK
B3: g28v2-D38-1_CLK19 (antibody, V domains shown)
VH: QVQLVQSGAEVKKPGASVKVSCKASGYTFTGHHMHWVRQAPGQGLEWLGWINPRGGGTNYAQKFQGRVTMTRDTSISTAYMDLSRLRSDDTAVYYCTPVLATFRWRFDYWGQGTLVTVSS
VL: DIQMTQSPSSLSASVGDRVTFTCQASQDISNFLNWYQQKPGKAPKLLIYDTSNLEAGVPSRFSGGGSGTDFTFTISSLQPEDVATYYCQQYATFGPGTKVDIK
B4: g28v2-D38-8_CLK19 (antibody, V domains shown)
VH: QVQLVQSGAEVKKPGASVKVSCKASGYSFSGYYMHWVRQAPGQGLEWMGWINPNHGGTNYAQKFQDRVTMTRDTSISTAYMELSRLRSDDTAVYFCARVDESWFGKKWTFDIWGQGTMVTVSS
VL: B3 VL with F21I, S30G, F32Y, A56T, G65S, T72S, S76A, V83I, A92D, T93I
B5: g28v2-D38-3_CLK19 (antibody, V domains shown)
VH: B3 VH with H32Y, H33F, L48M, R54H, G55F, G57A, D82E, T91W
VL: B3 VL with F21I, T22S, S30N, F32Y, A56T, G65S, V83I, A92D
B6: g28v2-D38-11_CLK19 (antibody, V domains shown)
VH: QVQLVQSGAEVKKPGASVKVSCKASGYTFTGYYMHWVRQAPGQGLEWMGWINPNSGGTNYAQIFQDRVTMTRDTSISTAYLELSRLRSDDTAVYYCTRVDGVWSFDIWGQGTMVTVSS
VL: B3 VL with D1N, F21I, F32Y, L46I, T51A, A56T, G65S, V83I, A92D
B7: g28v2-D46-10_CLK19 (antibody, V domains shown)
VH: QVQLVQSGAEVKRPGASVRVSCKASGYTFTGYYMHWVRQAPGQGLEWMGWINPNRGGVNYAHKFQGRVTMTRDTSISTAYMDLSRLRSDDTAVFYCTTALAGHGWRFDYWGQGTLVTVSS
VL: B3 VL with D1N, F21I, I29T, F32Y, T51A, A56T, G65S, S77G, V83I, A92E
B8: g28v2-D46-13_CLK19 (antibody, V domains shown)
VH: QVQLVQSGAEVKKPGASVKVSCKASGYTFTGNYMHWVRQAPGQGLEWMGWINPNSGGTNYAQKFQGRVTMTRDTSISTAHMELRSLRSDDTAVYYCARVEGSWFGKKWTFDIWGQGTMVTVSS
VL: B3 VL with D1A, F21I, S30T, F32Y, T51A, G65S, S77G, V83I, Y87S, A92E
B9: g28v2-D38-5_CLK19 (antibody, V domains shown)
VH: QVQLVQSGAEVKKPGASVKVSCKASGYTFIDYYIHWVRQAPGQGLEWMGWINPYHGGTNCAQKFQDRVTMTRDTSISTAYLEMSRLRSDDTAVFFCVIALAGHGWRFDYWGQGTQVTVSS
VL: B3 VL with F21I, S30N, F32Y, A56T, G65S, V83I, T93A
B10: g28v2-D46-2_CLK19 (antibody, V domains shown)
VH: QVQLLQSGDEVKKPGASVRVSCKASGYTFTAYFLHWVRQAPGQGLEWMGWINPHSGGTNYAQRFQDRVTMTRDTSISTAYMELSRLRSDDTAVYYCTPVLADYRWRFAYWGQGTLVTVSS
VL: B3 VL with F21I, S30N, F32Y, S52T, A56I, G65S, V83F, T93A
B11: g28v2-D46-3_CLK19 (antibody, V domains shown)
VH: QVQLVQSGAEVKKPGAAVKVSCKASGYTFTDYYMHWVRQAPGQGLEWMGWINPRYGGTNYAQKFQDRVTMTRDTSISTTYMELRRLKSDETAVYYCTTVMADYRWPFDYWGQGTLVTVSS
VL: B3 VL with F21I, T22S, S30N, F32C, E55G, A56T, G65S, V83I, A84G, A92D
B12: g28v2-D46-1_CLK19 (antibody, V domains shown)
VH: QVQLVQSGAEVKKPGAAVKVSCKASGYTFTGYYIHWVRQAPGQGLEWMGWVNPKTGATNYAQKFQGRVTMTRDTSISTTYMELRRLRSDETAVYFCATVMADFRWPFDYWGQGTLVTVSS
VL: B3 VL with F21I, S30N, F32Y, E55G, A56I, G65S, V83I, A84G, A92D
B13: g28v2-D38-7_CLK19 (antibody, V domains shown)
VH: QVQLVQSGAEVKKPGASVKVSCKASGYTFTGYYMHWVRQAPGQGPEWMGWLNPNNGGTNFARKYQDRVTMTRDTSLSSAYMELSRLRSDDTAVYYCARVGEKWTFDFWGQGTMVTVSS
VL: B3 VL with F21I, S30N, F32Y, G65S, V83I, Y87F, T93A
B14: g28v2-D38-6_CLK19 (antibody, V domains shown)
VH: QVQLVQSGAEVREPGASVKVSCKASGYTFTGYYMHWVRQAPGQGLEWMGWINPNRGGTNLARKLQDRVTMTRDTSLSTAYMELRRLRTDDTAVYYCARVGEKWTFDIWGQGTMVTVSS
VL: B3 VL with I2L, F21I, S30N, F32Y, K42R, A56T, G65S, V83I, T93A
B15: g28v2-D38-2_CLK19 (antibody, V domains shown)
VH: QVQLVQSGAEVKKPGASVKVSCKASGYTFTDYYLHWVRQAPGQGLEWMGWINPIFGAPNYARKFQGRVTMTRDTSISTAYMELSRLNSDDTAVYYCTHVLATYRWRFDHWGQGTLVTVSS
VL: B3 VL with S30G, E55G, G65S, V83I
B16: g28v2-D38-9_CLK19 (antibody, V domains shown)
VH: B1 VH with G31V, I34M, W104K
VL: B1 VL with H37Q, R39K, A51T, S65G, S71F
B17: g28v2-D46-12_CLK19 (antibody, V domains shown)
VH: QVQLVQSGAEVKKPGASVKVSCKASGYTFTGYFMHWVRQAPGQGLEWMGWINPNTGGVNYSQKFQGRVTMTRDTSITTAYMELSSLRSDDTAVYFCVTALAGHGWRFDYWGQGTLVTVSS
VL: B3 VL with F21I, I29T, F32Y, T51A, A56T, G65S, S77G, V83I, A92E
B18: g28v2-D46-11_CLK19 (antibody, V domains shown)
VH: B7 VH with R13K, G31D, N54H, R55S, D82E, F94Y
VL: B3 VL with F21I, I29T, F32Y, Q38L, T51A, A56T, G65S, S77G, V83I, A92E
B19: g28v2-D38-4_CLK09 (antibody, V domains shown)
VH: QVQLVQSGAEVKKPGASVKVSCKASGYTFTDYFLHWVRQAPGQGLEWMGWINPTGGGVNYAQQFQGRVTLTRDTSISTAYMELTRLRSDDTAVYYCTPVLATFRWRFDYWGQGTLVTVSS
VL: DIQMTQSPSSLSASVGDRVTITCQASQDISNYLNWYQQKPGKAPKLLIYDVSNLGTGVPSRFSGSGSGTDFTFTISSLQPEDIATYYCQQYEFFGGGTKVEIK
B20: g28-D78-9_CLK09 (antibody, V domains shown)
VH: QVQLVQSGAEVKKPGASVRVSCKASGYTFTGNYIHWVRQAPGQGLEWMGWLNPINGGTNHAQKFQGRVTMTRDTSISTAYMELSRLRSDDTTVYYCARVGGLWSGKGWTFDIWGQGTMVTVSS
VL: DIQMTQSPSSLSASVGDRVTITCQASQDISILNWYQQKPGKAPKLLIYGASNLETGVPSRFSGSGSGTDFTFTISSLQPEDIATYYCQQYEFFGGGTKVEIK

Changes are numbered by the printed parent chain.

The assay addresses eOD-GT8 (monomeric ligand) (Human immunodeficiency virus 1, …).
B1 yielded a Kd of 0.0433 nM.
For B2, binding was put at a Kd of 12 nM.
To B3 belongs 6.29 nM.
For the molecule B4, the Kd is 50.8 nM.
To B5 belongs 105 nM; to B6, 0.0422 nM.
B7 came in with a Kd of 1.35 nM.
The result for B8 reads 0.193 nM; that for B9, 4.43 nM.
The result for B10 reads 0.344 nM; that for B11, 0.338 nM.
To B12 belongs 10.8 nM.
For the molecule B13, the Kd was found to be 0.0876 nM.
Regarding B14, binding was characterised by a dissociation constant (Kd) of 5.38 nM.
For the molecule B15, the affinity, expressed as Kd, was 3710 nM.
B16 showed a Kd of 0.149 nM.
The result for B17 reads 0.183 nM.
For the molecule B18, the Kd was found to be 0.0455 nM.
To B19 belongs 0.177 nM; to B20, 0.19 nM.
